# Data reported in publication PMC11602160, “Modulation of UPF1 catalytic activity upon interaction of SARS-CoV-2 Nucleocapsid protein with factors involved in nonsense mediated-mRNA decay” (Nucleic Acids Research, 2024).
# Biological target: T1, full-length GST-tagged SARS-CoV-2 Nucleocapsid (N) protein (SARS-CoV-2, UniProt P0DTC9 1-419)
# T1 construct: SARS-CoV-2 Nucleocapsid (N) protein, full length; also called GST-N
# Assay: pull-down
# Details: both partners purified
binder,measurement,value
"UPF2 truncated construct lacking 120 and 45 residues at the N- and C-termini (domain or fragment, human, UniProt Q9HAU5 121-1227, looked up, human UPF2 lacking 120 residues at the N-terminus and 45 residues at the C-terminus) MKEKEESIQLHQEAWERHHLRKELRSKNQNAPDSRPEENFFSRLDSSLKKNTAFVKKLKTITEQQRDSLSHDFNGLNLSKYIAEAVASIVEAKLKISDVNCAVHLCSLFHQRYADFAPSLLQVWKKHFEARKEEKTPNITKLRTDLRFIAELTIVGIFTDKEGLSLIYEQLKNIINADRESHTHVSVVISFCRHCGDDIAGLVPRKVKSAAEKFNLSFPPSEIISPEKQQPFQNLLKEYFTSLTKHLKRDHRELQNTERQNRRILHSKGELSEDRHKQYEEFAMSYQKLLANSQSLADLLDENMPDLPQDKPTPEEHGPGIDIFTPGKPGEYDLEGGIWEDEDARNFYENLIDLKAFVPAILFKDNEKSCQNKESNKDDTKEAKESKENKEVSSPDDLELELENLEINDDTLELEGGDEAEDLTKKLLDEQEQEDEEASTGSHLKLIVDAFLQQLPNCVNRDLIDKAAMDFCMNMNTKANRKKLVRALFIVPRQRLDLLPFYARLVATLHPCMSDVAEDLCSMLRGDFRFHVRKKDQINIETKNKTVRFIGELTKFKMFTKNDTLHCLKMLLSDFSHHHIEMACTLLETCGRFLFRSPESHLRTSVLLEQMMRKKQAMHLDARYVTMVENAYYYCNPPPAEKTVKKKRPPLQEYVRKLLYKDLSKVTTEKVLRQMRKLPWQDQEVKDYVICCMINIWNVKYNSIHCVANLLAGLVLYQEDVGIHVVDGVLEDIRLGMEVNQPKFNQRRISSAKFLGELYNYRMVESAVIFRTLYSFTSFGVNPDGSPSSLDPPEHLFRIRLVCTILDTCGQYFDRGSSKRKLDCFLVYFQRYVWWKKSLEVWTKDHPFPIDIDYMISDTLELLRPKIKLCNSLEESIRQVQDLEREFLIKLGLVNDKDSKDSMTEGENLEEDEEEEEGGAETEEQSGNESEVNEPEEEEGSDNDDDEGEEEEEENTDYLTDSNKENETDEENTEVMIKGGGLKHVPCVEDEDFIQALDKMMLENLQQRSGESVKVHQLDVAIPLHLKSQLRKGPPLGGGEGEAESADTMPFVMLTRKGNKQQFKILNVPMSSQLAANHWNQQQAEQEERMRMKKLTLDINERQEQED",binding result,binds
